In the DeepSol protein solubility set:

Experiment: soluble on expression in E. coli; label from the status in PepcDB or PDB records
With “MIDINLIREKPDYVKERLATRDKELVSLVDKVLELDKRRREIIKRLEALRSERNKLSKEIGKLKREGKDTTEIQNRVKELKEEIDRLEEELRKVEEELKNTLLWIPNLPHPSVPVGEDEKDNVEVRRWGEPRKFDFEPKPHWEIGERLGILDFKRGAKLSGSRFTVIAGWGARLERALINFMLDLHTKKGYKEICPPHLVKPEILIGTGQLPKFEEDLYKCERDNLYLIPTAEVPLTNLYREEILKEENLPIYLTAYTPCYRREAGAYGKDIRGIIRQHQFDKVELVKIVHPDTSYDELEKLVKDAEEVLQLLGLPYRVVELCTGDLGFSAAKTYDIEVWFPSQNKYREISSCSNCEDFQARRMNTRFKDSKTGKNRFVHTLNGSGLAVGRTLAAILENYQQEDGSVVVPEVLRDYVGTDVIRPE” the “soluble on expression in E. coli” value was “soluble”.
In the case of “RCFRLEQTQKDARVVSVHAAMSGRSTIGEQQGHSISWRRRLSRANTWPSAAKAQAYITNVATPALTQVAEELCRKGINARLVTTKTQAVEGLDLIVEMGSEQNFRYQLFPVCNPVPQFTRKANASEKETYYRLEVCDLTGSLGYDIYGYTQEQLIDNVLDLYERHLEFLHMHSDLPGSSDLSDGATPPLFS”, the “soluble on expression in E. coli” value is reported as “not soluble”.
For “MSLTLDVWQHIRQEAKELAENEPMLASFFHSTILKHQNLGGALSYLLANKLANPIMPAISLREIIEEAYQSNPSIIDCAACDIQAVRHRDPAVELWSTPLLYLKGFHAIQSYRITHYLWNQNRKSLALYLQNQISVAFDVDIHPAAKIGHGIMFDHATGIVVGETSVIENDVSILQGVTLGGTGKESGDRHPKVREGVMIGAGAKILGNIEVGKYAKIGANSVVLNPVPEYATAAGVPARIVSQDKAAKPAFDMNQYFIGIDDGMNLNEGGSHHHHHH”, the “soluble on expression in E. coli” value was “soluble”.
In the case of “MDVSYYDGPKDEVAEAMLKSAVTAMRLGQYEDGKGRLEEIMEFGTSNFQLLGTIYMYYGRVCRHLNHDAKALEFFEHELNMFKLIFNYPEACDSTRRIVEQALKMGKFPKARRFAEDLIDYTSNKKNGEKYIGQARILFASVCLEGCERDVESNQDEKKKLLSICAEQIAAVKLFNENNTEGAVSETKIMLLEAKCLSLDEKYEESRRKYQECIDFAIKTDQFEAVHIAYYDKALYAETDLLFFIIRDLRSALFYATKFGKERDVVKYKSKLSEEMLRNGEFHEAYLYGLEALVSIRKLGLNEYIGDVLLTIAKCLIALGKRRQAAYFIILGSVLTINQNSFKLFYEQIDVAMNQERSETATDQDVCLAIDSSPDPTSSNDMINKFVVELEHATNVETWEMIVNGIIDDQKKPVAIEKKENEEPVDMMDLIFSMSSRMDDQRTELPAARFIPPRPVSSASKKTTKSHRILPGLRANWTKVQSMKFDGHTMNRILKRSKKSKSSLDSTNSMQGDDTRSDDVTMTSK”, the “soluble on expression in E. coli” value is reported as “not soluble”.
In the case of “MSQPSGPPIGFSNPDYIPPKALDLLKPALTIRAPPEETGMLGELQEDVLQVLSLPCRHTNACLPACLQSLPILCSF”, the “soluble on expression in E. coli” value is reported as “soluble”.
With “GPLGSYGDAIPEVKAILEAKNEEELVTFTSRWSAEERKELRTQFQDTTGLEFIAFLKKCIKNGPYEDVMALGWDCNISARVNVIKKAMKNVNDFRAIHDVVLIATPDERLKLAQAYKEKTGNDLLQDFVDQIPLTSAASYLCHLAIRENRTPRGSVASDAEVLKHNLIDADEPDHEAVVRLIITSTADEYKEINHRFEVLTGKSVQEAIETRYADKENARGLCIAHYYNLAPARAVAYAFHSAVETQNDDMAYEQAARITGLFHDLHKFAWVHYACWGVMRDDILSRFQSKEANKVNFRDACLMFWKLAK” the “soluble on expression in E. coli” value was “soluble”.
For “MPVVKVRENEPFDVALRRFKRSCEKAGILSEVRRREHYEKPTTVRKRAKAAAQKRHAKKLSRENARRVRLYLEHHHHHH”, the “soluble on expression in E. coli” value was “not soluble”.
With “MGSDKIHHHHHHMPAFIKKELIMKLQGAGLGYRRNLAEDFLQLPSNNAIQFIEVAPENWSKMGGMARYQFDQAAERFPLAVHGLSLSLGGQAPLDRELLRNTKALINQYNSSFFSEHLSYCECEGHLYDLLPMPFTEEAVKHVAQRIRDVQDFLGLQISLENTSYYLHSPTSTMNEVEFLNAIAQEADCGIHLDVNNIYVNGVNHGLLDPYIFLDQVDVKRVNYIHIAGHDEEHSAAQVVENSANESFNKVKGAYRHLPELLIDTHGEAVKGTVWDLLEYAYQRLPTIPPTLLERDFNFPPFAELYAEVEHIAQLQQKYAHTEVMSYAA” the “soluble on expression in E. coli” value was “not soluble”.
With “MGSDKIHHHHHHMYSDLNEGVKPYRMTKSHKNIKQCDLLIAGGAAVGLTLAIALKQAAPELKINIVDAAPQEVIPVSNIRALALAAASIRMLKQLQCWEHIAPHAQPIHSMIITDAYTNDPVKPTLLTFEGDITPNEPFAAMVEHKELLNALKKRAKDLDIPFITNMRIVDFHQEDQHTTVTLSNKEIWQTKLLIAADGAHSKLREKAGLKKFSHSYTQTAIICTVEHEKPHHGQAIQHFLPAGPFALLPLKGNRSAIVWNEDHKTAQYYLKADALIFETEIEKRIGHRYGKLSWNGERQGFPLNLSLTRQCIKPRFALIGDAAHTIHPLAGQGLNLGLRDSAALAEVIIETARLGLDIGSLTALERYQSWRRFEIVRMALSNDWLNKLFSNDNLLLRTLRDVGLGIVNQTPKVKKYFIQEAAGLTPHAPRLLHGLPL” the “soluble on expression in E. coli” value was “not soluble”.
For “GLIDSHVHPVVGDYTPRQQQLHWIDSTLHGGVTTLISAGEVHMPGRPKDIVGLKAMAIAAQRWYENFRPSGVKVMAGAPVIEHGMVEQDFKELADAGVKLLGEVGLGTVKDGKTARQMVDWARKYGIQSTIHTGGPSIPGSGLIDADMVLETGTDVIGHINGGHSALPDDQIMCLCESCTAGLEIVHNGNERAALLTLNTARELKQMDRIILGTDGPAGSGVQPLGILRMVAMLSALGNVPAEIAFCFANGNTARQRELDTGLLERGYAADFVLMDQAQHAPGKTILESVQLGNLPGVGMTVIDGVVCSERSRNTPPATRLPRIVS”, the “soluble on expression in E. coli” value was “not soluble”.
With “MNNIWWQTKGQGNVHLVLLHGWGLNAEVWRCIDEELSSHFTLHLVDLPGFGRSRGFGALSLADMAEAVLQQAPDKAIWLGWSLGGLVASQIALTHPERVQALVTVASSPCFSARDEWPGIKPDVLAGFQQQLSDDFQRTVERFLALQTMGTETARQDARALKKTVLALPMPEVDVLNGGLEILKTVDLRQPLQNVSMPFLRLYGYLDGLVPRKVVPMLDKLWPHSESYIFAKAAHAPFISHPAEFCHLLVALKQRV” the “soluble on expression in E. coli” value was “soluble”.
In the case of “MGSDKIHHHHHHMIKNTIKKLIEHSIYTTFKLLSKLPNKNLIYFESFHGKQYSDNPKALYEYLTEHSDAQLIWGVKKGYEHIFQQYNVPYVTKFSMKWFLAMPRAKAWMINTRTPDWLYKSPRTTYLQTWHGTPLKKIGLDISNVKMLGTNTQNYQDGFKKESQRWDYLVSPNPYSTSIFQHAFHVSRDKILETGYPRNDKLSHKRNDTEYINGIKTRLNIPLDKKVIMYAPTWRDDEAIREGSYQFNVNFDIEALRQALDDDYVILLRMHYLVVTRIDEHDDFVKDVSDYEDISDLYLISDALVTDYSSVMFDFGVLKRPQIFYAYDLDKYGDELRGFYMDYKKELPGPIVENQTALIDALKQIDETANEYIEARTVFYQKFCSLEDGQASQRICQTIFK”, the “soluble on expression in E. coli” value is reported as “not soluble”.
With “QEAQANTESEKRRLDSVITHMSDGILATDRRGRVRIANDMALKMLGLAKEDVIGYYMLGVLNLENEFSLEEIQENSDSFLLDINEEEGIIARVNFSTIVQETGFVTGYIAVLHDVT” the “soluble on expression in E. coli” value was “not soluble”.
In the case of “MRAPGVRAADGAGRVVLYLHGGAFVMCGPNSHSRIVNALSGFAESPVLIVDYRLIPKHSLGMALDDCHDAYQWLRARGYRPEQIVLAGDSAGGYLALALAQRLQCDDEKPAAIVAISPLLQLAKGPKQDHPNIGTDAMFPARAFDALAAWVRAAAAKNMVDGRPEDLYEPLDHIESSLPPTLIHVSGSEVLLHDAQLGAGKLAAAGVCAEVRVWPGQAHLFQLATPLVPEATRSLRQIGQFIRDATADSSLSPVHRSRYVAGSPRAASRGAFGQSPI”, the “soluble on expression in E. coli” value is reported as “soluble”.
With “MSLGAQADTILNVATAGDQNMVDYVKTWLGPKFEAAHPGVKVRVIGTGPGDAGSNKISEKLTAQQESGAQQWDIDVAVVHQKAGGEQVAKGLLQKYRQDIQTGGMVSSPSATQALGVNVDGYVMPMFLSQTAIAWNSDLVTTPPASYDELVAWTQKHPQAFGYNGIKNGMSGVSFVVGWIYAYGTDAQRLSAGPYDKSVEKGWQQAYEKLKAFNKNVTFTPGNAGTLDMLSRGEIAMGPVWVDMFYSWKDQGKLPPSIKLALLAPGMPGQPMYYVIPAKAANPQLARDFIALATSPEVQAQGIVKQFNWYPGIDAGQVKPKLDAATWQKLFAEISPEALAKYGKSFPIAPYFDDIKEGYESQVANEGHHHHHH” the “soluble on expression in E. coli” value was “soluble”.
In the case of “MSLGQKFAVFIAYDDEPNTKRYSAEFQTQDEYVKGWQSALKKAHHTSGQKSVISCGCRGKGAKRLYVRSLPNSDTFILIKAANTGTEHDPSCVFFDLDARHTGLKGYASNVVRINNEGTMSIRLGIGMTEKDPPEKSEVPSLPQIQRPEGGQASMTLSGLLSLLWTEAGLNVWYPNMAGKRNDSLVRYRMLEAAKQIRSGRACIGDHLFIGVADSKSKVASEQVQLLSSAELSDKRLLLLSVLPRYDAEKHEKPLKFLPMRNFGGMPLTFFNSDGHWDSVKRRFPLEYAAWKNGGKVVVFALTSPVSVTSRGISARAHQIVLMLVSDNWIPLDSSYEAIVSRKLDAEHRHYVKPMRYDASASDVFPDFYLLDTRSDKPFPMEVFGMSTPAYLARKELKKAYYNQEYGAYGWWHWDATEKTEYQELPHFPEARREGHHHHHH”, the “soluble on expression in E. coli” value is reported as “soluble”.
In the case of “PVYAGGQVARGGQLGVLGNADIMDVPFTMTSYTEQLIEDQQAEDVGDVLLNDASVRQSSGYANASKIFVIRGLKLTTDDISYNGLYGVLPRQIISTDALERVEVFKGPNA”, the “soluble on expression in E. coli” value is reported as “not soluble”.
In the case of “MSLRHGIQAVFLIEKISKCNSLESLSLLVKERQAVFEAMIESHLPANVIGQVLMMIYDAFTCRLIKLAERNVGLPPCNYAWLAAGSHARGEVHLGSDQDNALVLDDSATESDRIYFRHFAMYICKGLAECGYPLCNGRFMAATPKWNQPLFIWKQLYRKWANNPEYNMLLNLNVFLEVRFISGDRSLFDELNSERERCTKNNPHLIAALVRNLISHRPPLGIFNNLVLENNGHNEKSLNIKKSAIGLLVDIARIYALHKGGGMLSTEERFDFAYDRGLINSTSHQDLIGTYRYVTQLRYSHQLQCLQGGKPVTNAIFPEHFGSFERQHLKDAFRIIRGYQDTLKMKFGSEGHHHHHH”, the “soluble on expression in E. coli” value is reported as “soluble”.
With “MSLNKPLADRMRPIKLEDVVGQEHILSKNQILNKTLQAGHITNMIFYGPPGVGKTTVANIISNMTNKKLYKLNATNASIKDIQRIVAELDSFMTMNGVLLYLDEIQNFNKKQQQSLLEYIENGKITLIASTTENPYHYIYNAILSRSTVFEFKLLTKSNVIEGLKQVIKRINDEGKTLVEYEEEALDYIATASNGDLRRAMNALELAMYAAESENKEQVFLTIHIAQESTQKKVISYDKFGDQHYDILSAFQKSIRGTDPDAAIHYLARLVKAGDLNSICRRLLVIASEDIGLAYPTAITIVKSCVDAAMQVGFPEARINLAQATLVLATAPKSNSVIEAMDRALADLDQKDIGEIPTSLKDAHYKGASDLGRGVTYKYPHHYENNYIQQQYLPENIKNEKYYGSQNNKMEQRIFSYLEQLKKEGHHHHHH” the “soluble on expression in E. coli” value was “not soluble”.
For “MRPYKRVLIKLSGGALADQTGNSFNSKRLEHIANEILSIVDLGIEVSIVIGGGNIFRGHLAEEWGIDRVEADNIGTLGTIINSLMLRGVLTSKTNKEVRVMTSIPFNAVAEPYIRLRAVHHLDNGYIVIFGGGNGQPFVTTDYPSVQRAIEMNSDAILVAKQGVDGVFTSDPKHNKSAKMYRKLNYNDIVRQNIQVMDQAALLLARDYNLPAHVFNFDEPGVMRRICLGEHVGTLINDDVSMLVREKLEHHHHHH”, the “soluble on expression in E. coli” value was “not soluble”.
